Among the data in paper PMC5758890 are Kd values, retold here.

The target of assay [1] is T. thermophilus RNAP core enzyme (T. thermophilus) (UniProt Q5SHR6). In words: SPR. For orientation: SPR reads the build-up and loss of mass on a sensor chip optically.
The target of assay [2] is T. thermophilus RNAP σ^A holoenzyme (T. thermophilus HB8) (UniProt Q5SHR6). In words: SPR.

As usually defined, the Kd is the constant that tells how readily two partners part at equilibrium. Low readings indicate a tighter complex, high ones a looser complex. Turning to “Thermus thermophilus bacteriophage P23–45 gp76 (natural protein)”, the Kd in assay [1] was determined as 8.4 µM; in assay [2], 0.12 µM.
